The target of assay [1] is T1, human BAFF receptor (BAFFR) (human, UniProt Q96RJ3 1-184).
T1 sequence: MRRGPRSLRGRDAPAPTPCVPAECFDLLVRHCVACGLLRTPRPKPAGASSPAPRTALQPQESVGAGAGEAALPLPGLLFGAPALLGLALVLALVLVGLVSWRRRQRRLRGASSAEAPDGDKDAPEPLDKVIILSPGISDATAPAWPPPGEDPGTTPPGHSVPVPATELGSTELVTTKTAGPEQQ
In words: cell-based or functional assay.

Another assay deals with T2, BAFFR:Fc fusion protein (human, UniProt Q96RJ3 1-78, biotinylated in the competition ELISA).
T2 construct: Bought reagent; also called human BAFFR:Fc; bio-BAFFR:Fc; not shown: Fc part of the bought fusion protein (Alexis / Axxora)
T2 sequence: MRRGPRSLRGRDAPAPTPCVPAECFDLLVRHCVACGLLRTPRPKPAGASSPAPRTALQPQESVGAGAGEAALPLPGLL
Put plainly: BLyS/BAFFR:Fc competition ELISA; antibody titrated, BLyS coated. The procedure:
96-well MaxiSorp plates are coated over night at 4° C. with human soluble BLyS. After coating, the wells were washed 4 times with PBS/0.05% Tween20 (PBST) and then blocked for 1 h at 37° C. with PBST containing 1% bovine serum albumin followed by 4 washing steps with PBST. Biotinylated human BAFFR:Fc fusion protein (Axxora) at 20 ng/ml was added and captured for 1 h at 37° C. together with increasing concentrations of anti-BAFFR antibodies. After another washing round, ExtrAvidin-Alkaline Phosphatase (Sigma) was added to the wells and incubated for 30 minutes at 37° C. The bound phosphatase was detected by adding a solution containing p-nitrophenyl phosphate in diethanolamin (Sigma). The color reaction was stopped after ca. 20 minutes with an equal volume of 2N sodium hydroxide and the absorbance was measured at 405 nm on a plate reader (SpectraMax 190, Molecular Devices).
For orientation: ELISA stands for enzyme-linked immunosorbent assay.

Assay [2] deals with T1, human BAFF receptor (BAFFR). In words: competition FACS on Raji cells; Fab titrated, competitor biotinylated hsBLyS. How it is done:
The BAFFR-BLyS binding assay is performed using Raji cells expressing endogenous BAFFR. The BAFFR specific Fabs are used in final dilutions ranging from 40 to 0.001 nM. The diluted Fabs are incubated in 96-well plates with 5×10⁴ Raji cells per well for 1 h at 4° C. on a shaker. Then biotinylated hsBLyS is added in a final concentration of 25 ng/ml and the cells were incubated for 30 min at 4° C. on a shaker. The cells are washed twice with FACS buffer and then resuspended in phycoerythrin-conjugated Streptavidin (Dianova) which has been diluted 1:200 in FACS buffer. The staining is performed for one hour at 4° C. on a shaker. Finally the cells are washed twice with FAGS buffer, resuspended in FACS buffer and BLyS binding to cell surface BAFFR is detected via fluorescence cytometry in the FACSArray instrument (Becton Dickinson).
The IC50 values of the antibodies of the invention in a human Fab format are determined in a BAFFR-BLyS binding inhibition assay by Fab titration on Raji cells (FACS).

Assay [3] shares this target. Put plainly: FACS titration of Fab on transfected HEK293-hBAFFR cells. How it is done:
(§1) The EC₅₀ of the Fabs is determined by Fab titration in FACS on transfected HEK293 cells as well as on Raji cells expressing endogenous BAFFR.

Assay [4] deals with T3, recombinant BCMA Fc-fusion protein (UniProt Q02223 1-54, limits assumed).
T3 construct: not shown: Fc part
T3 sequence (looked up): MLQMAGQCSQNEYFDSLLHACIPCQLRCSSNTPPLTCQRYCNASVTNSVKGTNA
In words: ELISA on Fc-captured recombinant BCMA Fc-fusion. The procedure: (§2) 384-well MaxiSorp plates are coated over night at 4° C. with a goat anti-human IgG, Fc γ fragment specific capture antibody. After coating the wells were washed twice with PBS/0.05% Tween20 (PBST) and then blocked for 1 h at RT with PBST containing 5% milk powder followed by two washing steps with PBST. Recombinant BCMA and TACI Fc-fusion proteins are added and captured for 1 h at RT. Then the purified and diluted BAFFR specific Fabs are added and the plates are incubated for 1 h at RT. To detect the Fabs, an alkaline phosphatase (AP)-conjugated goat anti-human IgG, Fab specific is added and the plates are incubated for 1 h at RT. Following each incubation step the wells are washed five times with PBST. For the detection of the AP-conjugates, AttoPhos (Roche) is used according to the manufacturer's instructions. Fluorescence is measured using a TECAN Spectrafluor plate reader.
(§3) In ELISA the Fabs are titrated from 400 nM down to 0.005 nM on […] captured to a Maxisorp plate via an anti-human Fc antibody. Only MOR07342 and MOR07346 show some cross-reactivity to BCMA at high Fab concentrations >100 nM. In contrast MOR06654, MOR07347, MOR07348, MOR07349 show no binding to BCMA above background. A 1000-fold discrimination factor is met by all Fabs.

Assay [5] has as its target T3, recombinant BCMA Fc-fusion protein. In words: ELISA titration on Fc-captured antigen. The procedure: as §2, §3
The target of assay [6] is T1, human BAFF receptor (BAFFR). In words: FACS titration of Fab on Raji cells (endogenous BAFFR). How it is done: as §1
Assay [7] concerns the target T4, BCMA on transfected HEK293 cells (UniProt Q02223 1-184, limits assumed).
T4 construct: whole, on cells
T4 sequence (looked up): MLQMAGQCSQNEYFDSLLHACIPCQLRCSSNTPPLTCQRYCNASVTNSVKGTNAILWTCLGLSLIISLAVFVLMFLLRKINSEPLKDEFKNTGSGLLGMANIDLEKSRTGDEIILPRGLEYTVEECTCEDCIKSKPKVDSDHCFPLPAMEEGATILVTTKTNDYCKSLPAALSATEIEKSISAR
Put plainly: FACS on BCMA-transfected HEK293 cells. How it is done:
In FACS the following Fabs are analyzed on BCMA-transfected HEK293 cells and titrated from 1 μM down to 0.005 nM: MOR06654, MOR06743, MOR07342, MOR07347, MOR7348 and MOR07349. At 330 nM only MOR07342 show an elevated binding signal which is 2-fold over background. All other tested Fabs show no signal at this concentration.

B1: MOR06743 Fab (Fab, V domains shown)
VH: QVQLQQSGPGLVKPSQTLSLTCAISGDSVSSNSAAWGWIRQSPGRGLEWLGRIYYRSKWYNSYAVSVKSRITINPDTSKNQFSLQLNSVTPEDTAVYYCARYDWVPKIGVFDSWGQGTLVTVSS
VL: DIVLTQSPATLSLSPGERATLSCRASQMIDLRYLSWYQQKPGQAPRLLIYGSSSRATGVPARFSGSGSGTDFTLTISSLEPEDFAVYYCQQLYSSPMTFGQGTKVEIK
notes: Human Fab format; also called MOR6743
Regarding B1, in assay [1], the “B-cell proliferation Agonism EC50” value was > 187 nM and the “B-cell proliferation Inhibition IC50” value is 2 nM. Besides, in the assay with BAFFR:Fc fusion protein, the IC50 (commonly the midpoint of a concentration-inhibition curve) came to 0.1 nM.

B2: MOR07685 Fab (Fab, V domains shown)
VH: QVQLQQSGPGLVKPSQTLSLTCAISGDSVSSNSAAWGWIRQSPGRGLEWLGRIYYRSKWYNSYAVSVKSRITINPDTSKNQFSLQLNSVTPEDTAVYYCARYQWVPKIGVFDSWGQGTLVTVSS
VL: DIVLTQSPATLSLSPGERATLSCRASQMIDLRYLSWYQQKPGQAPRLLIYGSSSRATGVPARFSGSGSGTDFTLTISSLEPEDFAVYYCQQLYSSPMTFGQGTKVEIK
For B2, in assay [2], the half-inhibitory concentration (IC50) came to 0.12 nM.

B3: MOR07347 Fab (Fab, V domains shown)
VH: QVQLQQSGPGLVKPSQTLSLTCAISGDSVSSNSAAWGWIRQSPGRGLEWLGRIYYRSKWYNSYAVSVKSRITINPDTSKNQFSLQLNSVTPEDTAVYYCARYQWVPKIGVFDSWGQGTLVTVSS
VL: DIVLTQSPATLSLSPGERATLSCRASQEILPEYLSWYQQKPGQAPRLLIYGSSSRATGVPARFSGSGSGTDFTLTISSLEPEDFAVYYCQQFYSSPLTFGQGTKVEIK
notes: Human Fab format
Consider B3, for which, in assay [3], the midpoint of the response, the EC50, lay at 0.08 nM. The values for the IC50 (in assay [2]; with BAFFR:Fc fusion protein) were 0.02 nM and 0.1 nM, respectively. Moreover, the “B-cell proliferation Agonism EC50” value in assay [1] is > 187 nM. The “B-cell proliferation Inhibition IC50” value in assay [1] came to 1.3 nM. In addition, the binding result in assay [4] is recorded as “no binding (tested: titrated from 400 nM down to 0.005 nM)”. The “discrimination factor (BAFFR over BCMA)” value in assay [5] is ≥ 1000 fold.

B4: MOR07348 Fab (Fab, V domains shown)
VH: QVQLQQSGPGLVKPSQTLSLTCAISGDSVSSNSAAWGWIRQSPGRGLEWLGRIYYRSKWYNSYAVSVKSRITINPDTSKNQFSLQLNSVTPEDTAVYYCARYDWVPKIGVFDLWGQGTLVTVSS
VL: DIVLTQSPATLSLSPGERATLSCRASQWIEAGYLSWYQQKPGQAPRLLIYGSSSRATGVPARFSGSGSGTDFTLTISSLEPEDFAVYYCQQLYSSPMTFGQGTKVEIK
notes: Human Fab format; also called MOR7348; MOR007348
In the case of B4, the concentration for a half-maximal effect (EC50) (usually the concentration giving half of the maximal effect) in assay [3] is 0.24 nM; in assay [6], 0.12 nM. Besides, the IC50 was determined as 0.2 nM in assay [2] and 0.96 nM with BAFFR:Fc fusion protein. For the same molecule, the “B-cell proliferation Agonism EC50” value in assay [1] was > 187 nM. For the same molecule, the “B-cell proliferation Inhibition IC50” value in assay [1] worked out at 2.9 nM. The results for the binding result in assay [4] and in assay [7] were “no binding (tested: titrated from 400 nM down to 0.005 nM)” and “no binding (tested: 1 µM)”, respectively. In assay [5], the “discrimination factor (BAFFR over BCMA)” value was ≥ 1000 fold.

B5: MOR07349 Fab (Fab, V domains shown)
VH: QVQLQQSGPGLVKPSQTLSLTCAISGDSVSSNSAAWGWIRQSPGRGLEWLGRIYYRSKWWNDYAVSVKSRITINPDTSKNQFSLQLNSVTPEDTAVYYCARYDWVPKIGVFDGWGQGTLVTVSS
VL: DIVLTQSPATLSLSPGERATLSCRASQMIDLRYLSWYQQKPGQAPRLLIYGSSSRATGVPARFSGSGSGTDFTLTISSLEPEDFAVYYCQQFYSSPLTFGQGTKVEIK
notes: Human Fab format
As to B5, the 50% effective concentration (EC50) in assay [3] came to 0.24 nM; in assay [6], 0.13 nM. Further, the half-inhibitory concentration (IC50) in assay [2] worked out at 0.17 nM; with BAFFR:Fc fusion protein it was 0.44 nM. In assay [1], the “B-cell proliferation Agonism EC50” value is > 187 nM. For the same molecule, the “B-cell proliferation Inhibition IC50” value in assay [1] worked out at 3.5 nM. The binding result in assay [4] is given as “no binding (tested: titrated from 400 nM down to 0.005 nM)”; in assay [7] it was “no binding (tested: 1 µM)”. Further, in assay [5], the “discrimination factor (BAFFR over BCMA)” value is ≥ 1000 fold.

B6: MOR07342 Fab (Fab, V domains shown)
VH: QVQLQQSGPGLVKPSQTLSLTCAISGDSVSSNSAAWGWIRQSPGRGLEWLGRIYYRSKWYNNYAVSVKSRITINPDTSKNQFSLQLNSVTPEDTAVYYCARYKWVPKIGVFDSWGQGTLVTVSS
VL: DIVLTQSPATLSLSPGERATLSCRASQMIDLRYLSWYQQKPGQAPRLLIYGSSSRATGVPARFSGSGSGTDFTLTISSLEPEDFAVYYCQQFYSSPLTFGQGTKVEIK
notes: Human Fab format
With B6, the concentration giving a half-maximal response (EC50) in assay [3] worked out at 0.18 nM; in assay [6], 0.06 nM. For the same molecule, the half-maximal inhibitory concentration (IC50) came out at 0.09 nM in assay [2] and 0.14 nM with BAFFR:Fc fusion protein. In addition, in assay [1], the “B-cell proliferation Agonism EC50” value is > 187 nM. Besides, the “B-cell proliferation Inhibition IC50” value in assay [1] was 0.9 nM. For the same molecule, in assay [5], the “discrimination factor (BAFFR over BCMA)” value was ≥ 1000 fold.

(Values after patent publication US20120195913A1 (Novartis, published 2012).)
